The assay concerns the target human plasma-derived FIXa (Haematologic Technologies Inc) (human) (UniProt P00740). Nature of the assay: cell-based or functional assay.

human plasma-derived FIXa (Haematologic Technologies Inc) (human), sequence (P00740 47-191, chain 1 of 2): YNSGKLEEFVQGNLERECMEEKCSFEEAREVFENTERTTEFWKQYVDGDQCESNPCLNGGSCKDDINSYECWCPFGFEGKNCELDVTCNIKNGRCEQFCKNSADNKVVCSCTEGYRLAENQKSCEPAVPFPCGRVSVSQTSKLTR
human plasma-derived FIXa (Haematologic Technologies Inc) (human), sequence (P00740 227-461, chain 2 of 2): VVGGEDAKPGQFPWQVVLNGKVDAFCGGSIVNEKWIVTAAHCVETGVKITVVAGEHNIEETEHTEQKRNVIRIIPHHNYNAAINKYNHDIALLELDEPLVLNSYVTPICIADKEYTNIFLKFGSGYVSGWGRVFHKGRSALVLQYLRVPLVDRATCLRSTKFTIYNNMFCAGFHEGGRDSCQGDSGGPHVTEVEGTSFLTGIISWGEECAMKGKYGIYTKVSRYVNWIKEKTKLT

Turning to ACE910 (bispecific antibody), the Maximum stimulation (fold), at 15300 nM BiAb was 808 fold.

(Values after patent US20250011468A1.)
